{
  "source": "patent US20260356924",
  "about": "(published 2026)",
  "binders": {"B1": {"name": "V0024 (antibody, V domains shown)", "VH": "QVQLQQPGTELVKPGASVKLSCKASGYTFTRFWMHWVKQRPGQGLEWIGNINPNNGGTDNNERFKSKATLTVDRSSSTAYMQLSSLTSEDSAVYYCARGTGTGAMDYWGQGTSVTVSS", "VL": "DVVMTQTPLSLPVSLGDQASISCRSSQSLVHSNGNTHLYWYLQKPGQSPKLLIYRVSSRFSGVPDRFSGSGSGTDFTLKISRVEAEDLGVYFCFQGTHVPRTFGGGTKLEIK"}, "B2": {"name": "V0023 (antibody, V domains shown)", "VH": "B1 VH with R31I, Q43H, N50K, T58G, N60Y, R63K, R74K, S77T, M81L", "VL": "B1 VL with Q18H, N35I, K44R, S48T, S58N, R82S, K112E", "modifications": "enriched paired helical filament tau, hyperphosphorylated"}, "B3": {"name": "V0052 (antibody, V domains shown)", "VH": "not shown", "VL": "SIVMTQTPKFLLVSAGDRVTITCKASQSVSNDVAWYQQKPGQSPKLLIYYASNRCTGVPDRFTGSGYGTDFTFTISTVQAEDLAVYFCQQDYRSPLTFGAGTKLELK", "modifications": "immunopurified paired helical filament tau, hyperphosphorylated"}, "B4": {"name": "V0024 (antibody, V domains shown)", "VH": "B1 VH", "VL": "B1 VL", "modifications": "immunopurified paired helical filament tau, hyperphosphorylated"}, "B5": {"name": "V0004 (antibody, V domains shown)", "VH": "QVQLQQPGAELVKPGASVKLSCKASDYTFTNYWMHWVKQRPGRGLEWIGRIDPNSGGTRYNEKFKNKATLTVDKPSSTAYMHLSSLTSEDSAVYYCAGDFDVWGTGTTVTVSS", "VL": "DIQMTQSPASLSASVGETVTITCRASGNIHNYLAWYQQRQGKSPQLLVYNAKTLPDGVPSRFSGSGSGTQYSLKINSLQPEDFGSYCCQHFWSTPLTFGAGTKLELK", "modifications": "enriched paired helical filament tau, hyperphosphorylated"}, "B6": {"name": "V0023 (antibody, V domains shown)", "VH": "B1 VH with R31I, Q43H, N50K, T58G, N60Y, R63K, R74K, S77T, M81L", "VL": "B1 VL with Q18H, N35I, K44R, S48T, S58N, R82S, K112E"}, "B7": {"name": "V0022 (antibody, V domains shown)", "VH": "QVQLQQPGTELVKPGSSVNLSCKASGFTFTRYWMHWVKERPGHGLEWIGNINPNNGGTDFNEKFKNKATLTVHKSSTTVFIQLSSLTSEDSAVYYCARGTGTGAMDYWGQGTSVTVSS", "VL": "B1 VL with S32N, N35I, H37Y, S58N, S68G"}, "B8": {"name": "V0022 (antibody, V domains shown)", "VH": "B7 VH", "VL": "B1 VL with S32N, N35I, H37Y, S58N, S68G", "modifications": "immunopurified paired helical filament tau, hyperphosphorylated"}, "B9": {"name": "V0009 (antibody, V domains shown)", "VH": "EVQLVESGGALVQPGGSLSLSCAASGFTFTDYYMSWVRQPPGKALEWLALIRNKAKGFTTEYSASVKGRFTISRDNSQSILLFQMNDLRADDSATYYCVRDINYWGQGTTLTVSS", "VL": "not shown", "modifications": "immunopurified paired helical filament tau, hyperphosphorylated"}, "B10": {"name": "V0009 (antibody, V domains shown)", "VH": "B9 VH", "VL": "not shown", "modifications": "enriched paired helical filament tau, hyperphosphorylated"}, "B11": {"name": "V0023 (antibody, V domains shown)", "VH": "B1 VH with R31I, Q43H, N50K, T58G, N60Y, R63K, R74K, S77T, M81L", "VL": "B1 VL with Q18H, N35I, K44R, S48T, S58N, R82S, K112E", "modifications": "immunopurified paired helical filament tau, hyperphosphorylated"}, "B12": {"name": "V0022 (antibody, V domains shown)", "VH": "B7 VH", "VL": "B1 VL with S32N, N35I, H37Y, S58N, S68G", "modifications": "enriched paired helical filament tau, hyperphosphorylated"}, "B13": {"name": "V0004 (antibody, V domains shown)", "VH": "B5 VH", "VL": "B5 VL", "modifications": "immunopurified paired helical filament tau, hyperphosphorylated"}, "B14": {"name": "V0024 (antibody, V domains shown)", "VH": "B1 VH", "VL": "B1 VL", "modifications": "enriched paired helical filament tau, hyperphosphorylated"}, "B15": {"name": "Ab4 (antibody, V domains shown)", "VH": "QVQLVQSGAEVKKPGASVKVSCKASGFTFTRYWMHWVKERPGQGLEWMGNINPNNGGTDFNEKFKNRVTMTVHKSTSTVFIQLSSLRSEDTAVYYCARGTGTGAMDYWGQGTSVTVSS", "VL": "DIVMTQSPLSLSVTPGQPASISCRSSQSLVHNNGITYLYWYLQKPGQSPQLLIYRVSNRFSGVPDRFSGSGSGTDFTLKISRVEAEDVGVYYCFQGTHVPRTFGQGTKVEIK"}, "B16": {"name": "Ab11 (antibody, V domains shown)", "VH": "B15 VH", "VL": "B15 VL with I2V, S12P, P15L, L42Q, K44R, Q50R, V109L"}},
  "key": {"tau peptide 413-430": {"target": "T1, tau peptide 413-430 (human, phosphorylation not given)", "T1 chain": "STGSIDMVDSPQLATLAD"}, "[1]": {"target": "T2, Tau409-426 6-phospho peptide (human, not fully specified)", "T2 chain": "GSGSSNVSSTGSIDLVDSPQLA", "assay": "ELISA"}, "Tau409-426 pS422 peptide [2]": {"target": "T3, Tau409-426 pS422 peptide (human)", "T3 chain": "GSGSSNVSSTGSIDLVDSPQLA", "assay": "ELISA"}, "[3]": {"target": "T4, Tau409-426 pS416 pS422 peptide (human)", "T4 chain": "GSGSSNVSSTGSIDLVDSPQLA", "assay": "ELISA"}, "ePHF": {"target": "ePHF (human, UniProt P10636)", "sequence (P10636 2-758)": "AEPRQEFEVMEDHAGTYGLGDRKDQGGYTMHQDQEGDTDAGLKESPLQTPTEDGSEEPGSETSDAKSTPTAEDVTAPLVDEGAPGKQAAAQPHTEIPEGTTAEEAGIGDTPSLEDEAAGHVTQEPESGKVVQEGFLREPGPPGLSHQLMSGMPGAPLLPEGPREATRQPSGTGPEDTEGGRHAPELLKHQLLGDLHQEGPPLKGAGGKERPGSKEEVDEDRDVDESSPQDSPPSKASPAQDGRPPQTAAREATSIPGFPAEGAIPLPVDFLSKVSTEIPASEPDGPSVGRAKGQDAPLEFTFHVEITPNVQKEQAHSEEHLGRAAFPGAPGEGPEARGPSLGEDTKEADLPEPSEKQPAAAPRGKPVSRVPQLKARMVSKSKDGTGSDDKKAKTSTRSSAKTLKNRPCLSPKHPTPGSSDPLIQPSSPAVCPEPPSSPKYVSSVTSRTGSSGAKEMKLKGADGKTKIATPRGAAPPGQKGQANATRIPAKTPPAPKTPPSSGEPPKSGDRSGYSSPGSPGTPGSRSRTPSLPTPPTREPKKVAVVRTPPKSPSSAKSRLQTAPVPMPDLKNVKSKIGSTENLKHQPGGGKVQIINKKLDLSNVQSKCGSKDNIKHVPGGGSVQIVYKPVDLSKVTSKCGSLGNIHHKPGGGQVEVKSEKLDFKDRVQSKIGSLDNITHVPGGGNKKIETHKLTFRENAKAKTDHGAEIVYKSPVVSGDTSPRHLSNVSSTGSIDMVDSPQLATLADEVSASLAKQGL", "assay": "ELISA"}, "iPHF [4]": {"target": "T5, iPHF (human, UniProt P10636)", "T5 sequence (P10636 2-758)": "as above", "assay": "SPR, KD1"}, "iPHF [5]": {"target": "T5, iPHF", "assay": "BLI"}, "iPHF [6]": {"target": "T5, iPHF", "assay": "SPR, KD2"}, "iPHF [7]": {"target": "T5, iPHF", "assay": "SPR"}, "Tau409-426 pS422 peptide [8]": {"target": "T3, Tau409-426 pS422 peptide", "assay": "SPR"}},
  "note": "Substitutions are numbered along the chain they refer to.",
  "data": [
    {"binder": "B1", "values": [
      {"measurement": "Kd", "setting": "tau peptide 413-430", "value": 0.225, "unit": "nM"},
      {"measurement": "EC50", "setting": "[1]", "value": 0.222, "unit": "nM"},
      {"measurement": "EC50", "setting": "Tau409-426 pS422 peptide [2]", "value": 0.233, "unit": "nM"},
      {"measurement": "EC50", "setting": "[3]", "value": 0.22, "unit": "nM"}
    ]},
    {"binder": "B2", "values": [
      {"measurement": "EC50", "setting": "ePHF", "value": 0.11, "unit": "nM"}
    ]},
    {"binder": "B3", "values": [
      {"measurement": "Kd", "setting": "iPHF [4]", "value": 4.46, "unit": "nM"},
      {"measurement": "Kd", "setting": "iPHF [5]", "value": 0.6, "unit": "nM"},
      {"measurement": "Kd", "setting": "iPHF [6]", "value": 2.64, "unit": "nM"}
    ]},
    {"binder": "B4", "values": [
      {"measurement": "Kd", "setting": "iPHF [7]", "value": 0.124, "unit": "nM"},
      {"measurement": "Kd", "setting": "iPHF [5]", "value": 2.8, "unit": "nM"}
    ]},
    {"binder": "B5", "values": [
      {"measurement": "EC50", "setting": "ePHF", "value": 0.083, "unit": "nM"}
    ]},
    {"binder": "B6", "values": [
      {"measurement": "Kd", "setting": "tau peptide 413-430", "value": 0.207, "unit": "nM"},
      {"measurement": "EC50", "setting": "[1]", "value": 0.217, "unit": "nM"},
      {"measurement": "EC50", "setting": "Tau409-426 pS422 peptide [2]", "value": 0.234, "unit": "nM"},
      {"measurement": "EC50", "setting": "[3]", "value": 0.252, "unit": "nM"}
    ]},
    {"binder": "B7", "values": [
      {"measurement": "Kd", "setting": "tau peptide 413-430", "value": 0.306, "unit": "nM"},
      {"measurement": "EC50", "setting": "[1]", "value": 0.302, "unit": "nM"},
      {"measurement": "EC50", "setting": "Tau409-426 pS422 peptide [2]", "value": 0.288, "unit": "nM"},
      {"measurement": "EC50", "setting": "[3]", "value": 0.283, "unit": "nM"}
    ]},
    {"binder": "B8", "values": [
      {"measurement": "Kd", "setting": "iPHF [7]", "value": 0.0439, "unit": "nM"},
      {"measurement": "Kd", "setting": "iPHF [5]", "value": 0.3, "unit": "nM"}
    ]},
    {"binder": "B9", "values": [
      {"measurement": "Kd", "setting": "iPHF [7]", "value": 0.296, "unit": "nM"},
      {"measurement": "Kd", "setting": "iPHF [5]", "value": 0.2, "unit": "nM"}
    ]},
    {"binder": "B10", "values": [
      {"measurement": "EC50", "setting": "ePHF", "value": 0.038, "unit": "nM"}
    ]},
    {"binder": "B11", "values": [
      {"measurement": "Kd", "setting": "iPHF [7]", "value": 0.0578, "unit": "nM"},
      {"measurement": "Kd", "setting": "iPHF [5]", "value": 4, "unit": "nM"}
    ]},
    {"binder": "B12", "values": [
      {"measurement": "EC50", "setting": "ePHF", "value": 0.07, "unit": "nM"}
    ]},
    {"binder": "B13", "values": [
      {"measurement": "Kd", "setting": "iPHF [5]", "value": 20, "unit": "nM"}
    ]},
    {"binder": "B14", "values": [
      {"measurement": "EC50", "setting": "ePHF", "value": 0.125, "unit": "nM"}
    ]},
    {"binder": "B15", "values": [
      {"measurement": "Kd", "setting": "Tau409-426 pS422 peptide [8]", "value": 0.0361, "unit": "nM"}
    ]},
    {"binder": "B16", "values": [
      {"measurement": "Kd", "setting": "Tau409-426 pS422 peptide [8]", "value": 0.0403, "unit": "nM"}
    ]}
  ]
}
